Reference: paper PMC2748841 (Nature, 2009)

The binders below were run against biotin-Aβ42-oligomer (UniProt P05067) (assay: binding of biotinylated ligand to transfected cells).

| Binder | Kd [nM] |
| --- | --- |
| cellular Prion Protein (PrP^C), full-length mouse PrP expressed on COS-7 cells (receptor) not shown | 92 |
| Amyloid precursor-like protein 1 (APLP1) (natural protein) SLAGGSPGAAEAPGSAQVAGLCGRLTLHRDLRTGRWEPDPQRSRRCLRDPQRVLEYCRQMYPELQIARVEQATQAIPMERWCGGSRSGSCAHPHHQVVPFRCLPGEFVSEALLVPEGCRFLHQERMDQCESSTRRHQEAQEACSSQGLILHGSGMLLPCGSDRFRGVEYVCCPPPGTPDPSGTAVGDPSTRSWPPGSRVEGAEDEEEEESFPQPVDDYFVEPPQAEEEEETVPPPSSHTLAVVGKVTPTPRPTDGVDIYFGMPGEISEHEGFLRAKMDLEERRMRQINEVMREWAMADNQSKNLPKADRQALNEHFQSILQTLEEQVSGERQRLVETHATRVIALINDQRRAALEGFLAALQADPPQAERVLLALRRYLRAEQKEQRHTLRHYQHVAAVDPEKAQQMRFQVHTHLQVIEERVNQSLGLLDQNPHLAQELRPQIQELLHSEHLGPSELEAPAPGGSSEDKGGLQPPDSKDDTPMTLPKGSTEQDAASPEKEKMNPLEQYERKVNASVPRGFPFHSSEIQRDELAPAGTGVSREAVSGLLIMGAGGGSLIVLSMLLLRRKKPYGAISHGVVEVDPMLTLEEQQLRELQRHGYENPTYRFLEERP | 660 |
| Transmembrane protein 30B (TMEM30B) (natural protein) MTWSATARGAHQPDNTAFTQQRLPAWQPLLSASIALPLFFCAGLAFIGLGLGLYYSSNGIKELEYDYTGDPGTGNCSVCAAAGQGRALPPPCSCAWYFSLPELFQGPVYLYYELTNFYQNNRRYGVSRDDAQLSGLPSALRHPVNECAPYQRSAAGLPIAPCGAIANSLFNDSFSLWHQRQPGGPYVEVPLDRSGIAWWTDYHVKFRNPPLVNGSLALAFQGTAPPPNWRRPVYELSPDPNNTGFINQDFVVWMRTAALPTFRKLYARIRQGNYSAGLPRGAYRVNITYNYPVRAFGGHKLLIFSSISWMGGKNPFLGIAYLVVGSLCILTGFVMLVVYIRYQDQDDDDEE | 720 |
